# Measurements: publication PMC4777826, “Crystal Structure of the CTP1L Endolysin Reveals How Its Activity Is Regulated by a Secondary Translation Product*^([image sbox.jpg])” (The Journal of Biological Chemistry, 2015)
# B1: CD27L endolysin, full-length (wild type) (enzyme, UniProt B6SBV8 1-270, looked up)
# chain: MKICITVGHSILKSGACTSADGVVNEYQYNKSLAPVLADTFRKEGHKVDVIICPEKQFKTKNEEKSYKIPRVNSGGYDLLIELHLNASNGQGKGSEVLYYSNKGLEYATRICDKLGTVFKNRGAKLDKRLYILNSSKPTAVLIESFFCDNKEDYDKAKKLGHEGIAKLIVEGVLNKNINNEGVKQMYKHTIVYDGEVDKISATVVGWGYNDGKILICDIKDYVPGQTQNLYVVGGGACEKISSITKEKFIMIKGNDRFDTLYKALDFINR
# notes: CD27L endolysin, a bacteriophage endolysin that targets Clostridium difficile; The wild-type sample also holds the truncated CBD; also called FLCD27L; source: E. coli BL21(DE3), pET15b, purified (Ni-NTA)
# How the values were obtained:
# [1] = molecular target: CBDHis, CTP1L(195-274) with a C-terminal His tag (bacteriophage ΦCTP1); assay: native MS; nano-ESI of each purified sample by itself (wild-type gene products, CBDHis, RBSKO mutants), 150 mM ammonium acetate pH 7.4
# [2] = molecular target: CTP1L endolysin K190S/G191S, ribosomal binding site knock-out (RBSKO) (bacteriophage ΦCTP1); assay: native MS; CBDHis titrated to 10 μM full-length CTP1L RBSKO at molar ratios 1:1, 1:2, 1:3 and 1:6 (full-length:CBDHis), 150 mM ammonium acetate pH 7.4; ratios of species from simulated peaks, three measurements
# [3] = molecular target: CD27L endolysin RBSKO mutant (E181S/G182S) (bacteriophage (targets Clostridium difficile)) (UniProt B6SBV8); assay: native MS; nano-ESI of each purified sample by itself (wild-type gene products, CBDHis, RBSKO mutants), 150 mM ammonium acetate pH 7.4
# [4] = molecular target: CTP1L endolysin, full-length (wild type) (bacteriophage ΦCTP1); assay: as above
# [5] = molecular target: truncated C-terminal cell wall binding domain of CTP1L (secondary translation product) (bacteriophage ΦCTP1); assay: as above
# [6] = molecular target: CTP1L endolysin, full-length (wild type) (bacteriophage ΦCTP1); assay: native MS; nano-ESI of the sample made from the codon-optimised CTP1L gene with the silent C→G back mutation (less truncated CBD made), 150 mM ammonium acetate pH 7.4
# [7] = molecular target: the molecule itself; assay: native MS; nano-ESI of each purified sample by itself (wild-type gene products, CBDHis, RBSKO mutants), 150 mM ammonium acetate pH 7.4
molecule,measurement,setting,value
"CBDHis, CTP1L(195-274) with a C-terminal His tag (domain or fragment)",stoichiometry N,[1],2
same,"ratio of species, 1:1 heterodimer (full-length:CBDHis 1:1) (ratio (total 1.0))",[2],0.26
same,"ratio of species, 1:1 heterodimer (full-length:CBDHis 1:2) (ratio (total 1.0))",[2],0.29
same,"ratio of species, 1:1 heterodimer (full-length:CBDHis 1:3) (ratio (total 1.0))",[2],0.27
same,"ratio of species, 1:1 heterodimer (full-length:CBDHis 1:6) (ratio (total 1.0))",[2],0.31
same,"ratio of species, 1 FLCTP1L: 3 CBDHis heterotetramer (full-length:CBDHis 1:1) (ratio (total 1.0))",[2],0.09
same,"ratio of species, 1 FLCTP1L: 3 CBDHis heterotetramer (full-length:CBDHis 1:2) (ratio (total 1.0))",[2],0.19
same,"ratio of species, 1 FLCTP1L: 3 CBDHis heterotetramer (full-length:CBDHis 1:3) (ratio (total 1.0))",[2],0.27
same,"ratio of species, 1 FLCTP1L: 3 CBDHis heterotetramer (full-length:CBDHis 1:6) (ratio (total 1.0))",[2],0.38
same,"ratio of species, 2 FLCTP1L: 2 CBDHis heterotetramer (full-length:CBDHis 1:1) (ratio (total 1.0))",[2],0.3
same,"ratio of species, 2 FLCTP1L: 2 CBDHis heterotetramer (full-length:CBDHis 1:2) (ratio (total 1.0))",[2],0.32
same,"ratio of species, 2 FLCTP1L: 2 CBDHis heterotetramer (full-length:CBDHis 1:3) (ratio (total 1.0))",[2],0.26
same,"ratio of species, 2 FLCTP1L: 2 CBDHis heterotetramer (full-length:CBDHis 1:6) (ratio (total 1.0))",[2],0.17
same,"ratio of species, free FLCTP1L monomer (full-length:CBDHis 1:1) (ratio (total 1.0))",[2],0.4
same,"ratio of species, free FLCTP1L monomer (full-length:CBDHis 1:2) (ratio (total 1.0))",[2],0.2
same,"ratio of species, free FLCTP1L monomer (full-length:CBDHis 1:3) (ratio (total 1.0))",[2],0.2
same,"ratio of species, free FLCTP1L monomer (full-length:CBDHis 1:6) (ratio (total 1.0))",[2],0.14
CD27L endolysin RBSKO mutant (E181S/G182S) (from UniProt B6SBV8 1-270) (enzyme),stoichiometry N,[3],2
truncated C-terminal cell wall binding domain of CTP1L (secondary translation product),"ratio of species, free FLCTP1L monomer (wild-type sample) (ratio (total 1.0))",[4],0.03
truncated C-terminal cell wall binding domain of CTP1L (secondary translation product) (domain or fragment),"ratio of species, 1:1 heterodimer (wild-type sample) (ratio (total 1.0))",[4],0.12
same,"ratio of species, 1 FLCTP1L: 3 CBD heterotetramer (wild-type sample) (ratio (total 1.0))",[4],0.14
same,"ratio of species, 2 FLCTP1L: 2 CBD heterotetramer (wild-type sample) (ratio (total 1.0))",[4],0.72
same,stoichiometry N,[5],4
same,"ratio of species, 1:1 heterodimer (C→G sample) (ratio (total 1.0))",[6],0.09
same,"ratio of species, 2 FLCTP1L: 2 CBD heterotetramer (C→G sample) (ratio (total 1.0))",[6],0.62
same,"ratio of species, free FLCTP1L monomer (C→G sample) (ratio (total 1.0))",[6],0.28
B1,stoichiometry N,[7],2
